System: MS2 coat protein
Experiment: apparent KD of MS2 coat protein; designed switch direction (-1 OFF switch, 1 ON switch): -1; higher = weaker reporter binding
Procedure, shortened: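 RNA switches sharing common flanks were transcribed by stalled E. coli RNA polymerase on Illumina chips. A doubling series of SNAP-549-labelled MS2 coat protein, from 0.7 or 1.5 nM to 3 µM, was applied in Tris-HCl pH 7.5 buffer with KCl, MgCl2, BSA, DTT, tRNA and Tween-20. Each step lasted 0.8–1.5 h at the bottom of the series and 10–20 min at the top. Normalised cluster fluorescence was curve-fitted, giving apparent KD as the per-design median over clusters.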

[1] = Eterna round: R95, input ligand: FMN 200 uM
[2] = Eterna round: R95, input ligand: microRNA oligo, concentration not stated
[3] = Eterna round: R95, input ligand: none
[4] = input ligand: microRNA oligo, concentration not stated

Row | Sequence | apparent KD of MS2 coat protein (input ligand: FMN 200 uM) | apparent KD of MS2 coat protein (input ligand: none) | apparent KD of MS2 coat protein [1] | apparent KD of MS2 coat protein [2] | apparent KD of MS2 coat protein [3] | apparent KD of MS2 coat protein [4]
1 | CCAUGCACGCUGCGGUCCUACAUGAGGAUCACCCAUGUGGUCUGGUGGCGUGGGUCGCCGGACUUGGCUCGUCUUGA [salish99_S_TOV1_R5_022] (Eterna round: R97, puzzle: Sensor, turn-off variant 1) | 25.6 nM | 24.7 nM | – | – | – | –
2 | UGUACUAUGCGAGCUGACUUGCGUAGUGCAGCAGGUGGAACAUGAGGAUCACCCAUGUCCUCAUUUGCUCGUCUUAU [SL-sv3-2.03 JL mod] (puzzle: Sensor v3, turn-off variant 2) | – | – | 39 nM | 143 nM | 41.2 nM | –
3 | UUUAAUUUUUUUUUUUUACAAGCUUUUUGCUCGUCUUAUACAUGAGGAUCACCCAUGUAGGUGAAAGGUAAAUUAUC [JMF 65] (puzzle: Sensor v3, turn-off variant 2) | – | – | 32 nM | 117 nM | 30.9 nM | –
4 | UCACGGGACUGAGGAUAUACAUGAAUUAUUUUUGUAGAAGGCAGAAUGUUAGAUUAUUCACUAUACAUGAGGAUCACCCAUGUU [JR_ExcNG1_Sub022] (Eterna round: R96, puzzle: Exclusion NG 1) | – | – | – | – | – | 18.8 nM
5 | GAUGUGGGUUUUCAGAGUAACAUGAGGAUCACCCAUGUAGAAGUUGAAGGUAUCAAGCGAAUGGCUCGUCAUAUGUG [JR_SV3TOV1_Sub050] (puzzle: Sensor v3, turn-off variant 1) | – | – | 161 nM | 239 nM | 322 nM | –
6 | CACAAGCUUUUUUGUUGCUUUUUAGUUGGUGUGUGAUUUACAUGAGGAUCACCCAUGUUAUUGAUGCUCGAUCUUUU [JR_SV3TOV2_Sub082] (puzzle: Sensor v3, turn-off variant 2) | – | – | 71.1 nM | 143 nM | 97.3 nM | –
7 | CGCCAAAGGAAGGAUAUGCUAGACGAAAGUCUAGCAGAAGGUCCUACAUGAGGAUCACCCAUGUGUCCUAGGCG [Mat - Exclusion 6 - Eli Mod - D10] (Eterna round: R97, puzzle: Exclusion 6) | 49.1 nM | 46.1 nM | – | – | – | –
8 | AGCGAAUAAGCAGGAUAUGAGAAUAGAUAGAGCUCAGAAGGGCUACAUGAGGAUCACCCAUGUAAAGUCUUGAGGCUGCGUGGU [Prohibition 13 - Jieux - Exclusion NG 1] (Eterna round: R96, puzzle: Exclusion NG 1) | 22.5 nM | 18.4 nM | – | – | – | 14.4 nM
9 | AUAAGCUUUGAUAUCCUUAACAUGAGGAUCACCCAUGUUCGUCUUAUGAUGGUCUGAUCCCUGAGGAUCGGACCGUU [JL-sv1-2.06 Brourd Mod] (puzzle: Sensor v3, turn-off variant 1) | – | – | 34.4 nM | 88.4 nM | 33.1 nM | –
10 | CCAUGGAGUGUGAGGAUAUGCUGGUCCUUGGAUCAGCAGAAGGCACAUGAGGAUCACCCAUGUGAAUACCGUGG [Mat - Exclusion 4 - JL Mod - D83] (puzzle: Brourd's mod of Exclusion 4) | – | – | – | 31.4 nM | – | –
11 | CACCGUAACAGAGGAUAUCAAACAUGAGGAUCACCCAUGUAAUAAAUGAGAAUUUCGAAUGUACCUGAGAAGGCUGAAACCGGC [Ostricism 83 - Jieux - Exclusion NG 2] (Eterna round: R96, puzzle: Exclusion NG 2) | – | – | – | – | – | 25.9 nM
12 | GUAUAGUGAGGAUAUAUAUGCAGUAAACCUCAAAAGAUCGAACUUGAGGAUCACCCAAGUAGAAGGCGCGAGAU [JR_Ex2_Sub052] (Eterna round: R97, puzzle: Exclusion 2) | 24.5 nM | 30.4 nM | – | – | – | –
13 | AAAACACAUGAGGAUCACCCAUGUGAGGAUAUGUUAAUUUUAAUGAAAAUUAAAAUUAACAGAAGGCACAGAAA [JR_Exclusion1_Sub024] (puzzle: Exclusion 1) | – | – | 46.3 nM | 45.6 nM | 54.2 nM | –
14 | UAUUAGCAAGCAAAUGGGUACAUGAGGAUCACCCAUGUGCUCGUCUUAUAAGGUACUGUGACGAAAGUCACGGUACC [Eli 91 v35] (Eterna round: R97, puzzle: Sensor, turn-off variant 1) | 24.6 nM | 22.5 nM | – | – | – | –
15 | ACAAGCUUUUUGUUCGUCUUAUACACUCCUAAUAAGACAACAUGAGGAUCACCCAUGUAAGAAAUAAGAACUCAUGU [Sesor Array 4 - Jieux - Sensor v3, turn-off variant 2] (puzzle: Sensor v3, turn-off variant 2) | – | – | 292 nM | 595 nM | 381 nM | –
16 | ACAUGUUAUCUAGGAUAUUGGACACAUGAGGAUCACCCAUGUACCCGGAGGCUUUACUAUGAGUUCGAGAAGGAGAUGUACAUG [Ex NG2 #71] (Eterna round: R96, puzzle: Exclusion NG 2) | 97.9 nM | 73.1 nM | – | – | – | 67.6 nM
